B1: DSG1_HUMAN (protein, UniProt Q02413 50-1049, looked up)
Desmoglein-1: EWIKFAAACREGEDNSKRNPIAKIHSDCAANQQVTYRISGVGIDQPPYGIFVINQKTGEINITSIVDREVTPFFIIYCRALNSMGQDLERPLELRVRVLDINDNPPVFSMATFAGQIEENSNANTLVMILNATDADEPNNLNSKIAFKIIRQEPSDSPMFIINRNTGEIRTMNNFLDREQYGQYALAVRGSDRDGGADGMSAECECNIKILDVNDNIPYMEQSSYTIEIQENTLNSNLLEIRVIDLDEEFSANWMAVIFFISGNEGNWFEIEMNERTNVGILKVVKPLDYEAMQSLQLSIGVRNKAEFHHSIMSQYKLKASAISVTVLNVIEGPVFRPGSKTYVVTGNMGSNDKVGDFVATDLDTGRPSTTVRYVMGNNPADLLAVDSRTGKLTLKNKVTKEQYNMLGGKYQGTILSIDDNLQRTCTGTININIQSFGNDDRTNTEPNTKITTNTGRQESTSSTNYDTSTTSTDSSQVYSSEPGNGAKDLLSDNVHFGPAGIGLLIMGFLVLGLVPFLMICCDCGGAPRSAAGFEPVPECSDGAIHSWAVEGPQPEPRDITTVIPQIPPDNANIIECIDNSGVYTNEYGGREMQDLGGGERMTGFELTEGVKTSGMPEICQEYSGTLRRNSMRECREGGLNMNFMESYFCQKAYAYADEDEGRPSNDCLLIYDIEGVGSPAGSVGCCSFIGEDLDDSFLDTLGPKFKKLADISLGKESYPDLDPSWPPQSTEPVCLPQETEPVVSGHPPISPHFGTTTVISESTYPSGPGVLHPKPILDPLGYGNVTVTESYTTSDTLKPSVHVHDNRPASNVVVTERVVGPISGADLHGMLEMPDLRDGSNVIVTERVIAPSSSLPTSLTIHHPRESSNVVVTERVIQPTSGMIGSLSMHPELANAHNVIVTERVVSGAGVTGISGTTGISGGIGSSGLVGTSMGAGSGALSGAGISGGGIGLSSLGGTASIGHMRSSSDHHFNQTIGSASPSTARSRITKYSTVQYSK
B2: CBPD_HUMAN (protein, UniProt O75976 32-1380, looked up)
Carboxypeptidase D: AHIKKAEATTTTTSAGAEAAEGQFDRYYHEEELESALREAAAAGLPGLARLFSIGRSVEGRPLWVLRLTAGLGSLIPEGDAGPDAAGPDAAGPLLPGRPQVKLVGNMHGDETVSRQVLIYLARELAAGYRRGDPRLVRLLNTTDVYLLPSLNPDGFERAREGDCGFGDGGPSGASGRDNSRGRDLNRSFPDQFSTGEPPALDEVPEVRALIEWIRRNKFVLSGNLHGGSVVASYPFDDSPEHKATGIYSKTSDDEVFKYLAKAYASNHPIMKTGEPHCPGDEDETFKDGITNGAHWYDVEGGMQDYNYVWANCFEITLELSCCKYPPASQLRQEWENNRESLITLIEKVHIGVKGFVKDSITGSGLENATISVAGINHNITTGRFGDFYRLLVPGTYNLTVVLTGYMPLTVTNVVVKEGPATEVDFSLRPTVTSVIPDTTEAVSTASTVAIPNILSGTSSSYQPIQPKDFHHHHFPDMEIFLRRFANEYPNITRLYSLGKSVESRELYVMEISDNPGVHEPGEPEFKYIGNMHGNEVVGRELLLNLIEYLCKNFGTDPEVTDLVHNTRIHLMPSMNPDGYEKSQEGDSISVIGRNNSNNFDLNRNFPDQFVQITDPTQPETIAVMSWMKSYPFVLSANLHGGSLVVNYPFDDDEQGLATYSKSPDDAVFQQIALSYSKENSQMFQGRPCKNMYPNEYFPHGITNGASWYNVPGGMQDWNYLQTNCFEVTIELGCVKYPLEKELPNFWEQNRRSLIQFMKQVHQGVRGFVLDATDGRGILNATISVAEINHPVTTYKTGDYWRLLVPGTYKITASARGYNPVTKNVTVKSEGAIQVNFTLVRSSTDSNNESKKGKGASSSTNDASDPTTKEFETLIKDLSAENGLESLMLRSSSNLALALYRYHSYKDLSEFLRGLVMNYPHITNLTNLGQSTEYRHIWSLEISNKPNVSEPEEPKIRFVAGIHGNAPVGTELLLALAEFLCLNYKKNPAVTQLVDRTRIVIVPSLNPDGRERAQEKDCTSKIGQTNARGKDLDTDFTNNASQPETKAIIENLIQKQDFSLSVALDGGSMLVTYPYDKPVQTVENKETLKHLASLYANNHPSMHMGQPSCPNKSDENIPGGVMRGAEWHSHLGSMKDYSVTYGHCPEITVYTSCCYFPSAARLPSLWADNKRSLLSMLVEVHKGVHGFVKDKTGKPISKAVIVLNEGIKVQTKEGGYFHVLLAPGVHNIIAIADGYQQQHSQVFVHHDAASSVVIVFDTDNRIFGLPRELVVTVSGATMSALILTACIIWCICSIKSNRHKDGFHRLRQHHDEYEDEIRMMSTGSKKSLLSHEFQDETDTEEETLYSSKH
B3: SF3A1_HUMAN (protein, UniProt Q15459 2-793, looked up)
Splicing factor 3A subunit 1: PAGPVQAVPPPPPVPTEPKQPTEEEASSKEDSAPSKPVVGIIYPPPEVRNIVDKTASFVARNGPEFEARIRQNEINNPKFNFLNPNDPYHAYYRHKVSEFKEGKAQEPSAAIPKVMQQQQQTTQQQLPQKVQAQVIQETIVPKEPPPEFEFIADPPSISAFDLDVVKLTAQFVARNGRQFLTQLMQKEQRNYQFDFLRPQHSLFNYFTKLVEQYTKILIPPKGLFSKLKKEAENPREVLDQVCYRVEWAKFQERERKKEEEEKEKERVAYAQIDWHDFVVVETVDFQPNEQGNFPPPTTPEELGARILIQERYEKFGESEEVEMEVESDEEDDKQEKAEEPPSQLDQDTQVQDMDEGSDDEEEGQKVPPPPETPMPPPLPPTPDQVIVRKDYDPKASKPLPPAPAPDEYLVSPITGEKIPASKMQEHMRIGLLDPRWLEQRDRSIREKQSDDEVYAPGLDIESSLKQLAERRTDIFGVEETAIGKKIGEEEIQKPEEKVTWDGHSGSMARTQQAAQANITLQEQIEAIHKAKGLVPEDDTKEKIGPSKPNEIPQQPPPPSSATNIPSSAPPITSVPRPPTMPPPVRTTVVSAVPVMPRPPMASVVRLPPGSVIAPMPPIIHAPRINVVPMPPSAPPIMAPRPPPMIVPTAFVPAPPVAPVPAPAPMPPVHPPPPMEDEPTSKKLKTEDSLMPEEEFLRRNKGPVSIKVQVPNMQDKTEWKLNGQVLVFTLPLTDQVSVIKVKIHEATGMPAGKQKLQYEGIFIKDSNSLAYYNMANGAVIHLALKERGGRKK
B4: HACD3_HUMAN (protein, UniProt Q9P035 1-362, looked up)
Very-long-chain …: MENQVLTPHVYWAQRHRELYLRVELSDVQNPAISITENVLHFKAQGHGAKGDNVYEFHLEFLDLVKPEPVYKLTQRQVNITVQKKVSQWWERLTKQEKRPLFLAPDFDRWLDESDAEMELRAKEEERLNKLRLESEGSPETLTNLRKGYLFMYNLVQFLGFSWIFVNLTVRFCILGKESFYDTFHTVADMMYFCQMLAVVETINAAIGVTTSPVLPSLIQLLGRNFILFIIFGTMEEMQNKAVVFFVFYLWSAIEIFRYSFYMLTCIDMDWKVLTWLRYTLWIPLYPLGCLAEAVSVIQSIPIFNETGRFSFTLPYPVKIKVRFSFFLQIYLIMIFLGLYINFRHLYKQRRRRYGQKKKKIH
B5: CPSF1_HUMAN (protein, UniProt Q10570 1-1443, looked up)
Cleavage and polyadenylation …: MYAVYKQAHPPTGLEFSMYCNFFNNSERNLVVAGTSQLYVYRLNRDAEALTKNDRSTEGKAHREKLELAASFSFFGNVMSMASVQLAGAKRDALLLSFKDAKLSVVEYDPGTHDLKTLSLHYFEEPELRDGFVQNVHTPRVRVDPDGRCAAMLVYGTRLVVLPFRRESLAEEHEGLVGEGQRSSFLPSYIIDVRALDEKLLNIIDLQFLHGYYEPTLLILFEPNQTWPGRVAVRQDTCSIVAISLNITQKVHPVIWSLTSLPFDCTQALAVPKPIGGVVVFAVNSLLYLNQSVPPYGVALNSLTTGTTAFPLRTQEGVRITLDCAQATFISYDKMVISLKGGEIYVLTLITDGMRSVRAFHFDKAAASVLTTSMVTMEPGYLFLGSRLGNSLLLKYTEKLQEPPASAVREAADKEEPPSKKKRVDATAGWSAAGKSVPQDEVDEIEVYGSEAQSGTQLATYSFEVCDSILNIGPCANAAVGEPAFLSEEFQNSPEPDLEIVVCSGHGKNGALSVLQKSIRPQVVTTFELPGCYDMWTVIAPVRKEEEDNPKGEGTEQEPSTTPEADDDGRRHGFLILSREDSTMILQTGQEIMELDTSGFATQGPTVFAGNIGDNRYIVQVSPLGIRLLEGVNQLHFIPVDLGAPIVQCAVADPYVVIMSAEGHVTMFLLKSDSYGGRHHRLALHKPPLHHQSKVITLCLYRDLSGMFTTESRLGGARDELGGRSGPEAEGLGSETSPTVDDEEEMLYGDSGSLFSPSKEEARRSSQPPADRDPAPFRAEPTHWCLLVRENGTMEIYQLPDWRLVFLVKNFPVGQRVLVDSSFGQPTTQGEARREEATRQGELPLVKEVLLVALGSRQSRPYLLVHVDQELLIYEAFPHDSQLGQGNLKVRFKKVPHNINFREKKPKPSKKKAEGGGAEEGAGARGRVARFRYFEDIYGYSGVFICGPSPHWLLVTGRGALRLHPMAIDGPVDSFAPFHNVNCPRGFLYFNRQGELRISVLPAYLSYDAPWPVRKIPLRCTAHYVAYHVESKVYAVATSTNTPCARIPRMTGEEKEFETIERDERYIHPQQEAFSIQLISPVSWEAIPNARIELQEWEHVTCMKTVSLRSEETVSGLKGYVAAGTCLMQGEEVTCRGRILIMDVIEVVPEPGQPLTKNKFKVLYEKEQKGPVTALCHCNGHLVSAIGQKIFLWSLRASELTGMAFIDTQLYIHQMISVKNFILAADVMKSISLLRYQEESKTLSLVSRDAKPLEVYSVDFMVDNAQLGFLVSDRDRNLMVYMYLPEAKESFGGMRLLRRADFHVGAHVNTFWRTPCRGATEGLSKKSVVWENKHITWFATLDGGIGLLLPMQEKTYRRLLMLQNALTTMLPHHAGLNPRAFRMLHVDRRTLQNAVRNVLDGELLNRYLYLSTMERSELAKKIGTTPDIILDDLLETDRVTAHF
B6: DDX42_HUMAN (protein, UniProt Q86XP3 1-938, looked up)
ATP-dependent RNA helicase …: MNWNKGGPGTKRGFGFGGFAISAGKKEEPKLPQQSHSAFGATSSSSGFGKSAPPQLPSFYKIGSKRANFDEENAYFEDEEEDSSNVDLPYIPAENSPTRQQFHSKPVDSDSDDDPLEAFMAEVEDQAARDMKRLEEKDKERKNVKGIRDDIEEEDDQEAYFRYMAENPTAGVVQEEEEDNLEYDSDGNPIAPTKKIIDPLPPIDHSEIDYPPFEKNFYNEHEEITNLTPQQLIDLRHKLNLRVSGAAPPRPGSSFAHFGFDEQLMHQIRKSEYTQPTPIQCQGVPVALSGRDMIGIAKTGSGKTAAFIWPMLIHIMDQKELEPGDGPIAVIVCPTRELCQQIHAECKRFGKAYNLRSVAVYGGGSMWEQAKALQEGAEIVVCTPGRLIDHVKKKATNLQRVSYLVFDEADRMFDMGFEYQVRSIASHVRPDRQTLLFSATFRKKIEKLARDILIDPIRVVQGDIGEANEDVTQIVEILHSGPSKWNWLTRRLVEFTSSGSVLLFVTKKANAEELANNLKQEGHNLGLLHGDMDQSERNKVISDFKKKDIPVLVATDVAARGLDIPSIKTVINYDVARDIDTHTHRIGRTGRAGEKGVAYTLLTPKDSNFAGDLVRNLEGANQHVSKELLDLAMQNAWFRKSRFKGGKGKKLNIGGGGLGYRERPGLGSENMDRGNNNVMSNYEAYKPSTGAMGDRLTAMKAAFQSQYKSHFVAASLSNQKAGSSAAGASGWTSAGSLNSVPTNSAQQGHNSPDSPVTSAAKGIPGFGNTGNISGAPVTYPSAGAQGVNNTASGNNSREGTGGSNGKRERYTENRGSSRHSHGETGNRHSDSPRHGDGGRHGDGYRHPESSSRHTDGHRHGENRHGGSAGRHGENRGANDGRNGESRKEAFNRESKMEPKMEPKVDSSKMDKVDSKTDKTADGFAVPEPPKRKKSRWDS

Tested on: KDM4A-I71AzF
Assay: CASI: photo-crosslinking with HEK293T cell extracts, StrepTactin enrichment and LC-MS/MS proteomics;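 note: lysates from HEK293T cells pretreated with a KDM4 inhibitor to raise proteome methylation, affinity-purified after ±UV, gel-resolved, trypsin-digested, with exclusive unique peptides per protein averaged per condition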
Type: binding, human
Conditions: sheet "Final results but with 0.01"

| Molecule | Fold change (+UV/-UV) |
| --- | --- |
| B1 | 2 |
| B2 | 1 |
| B3 | 0 |
| B4 | 0.6667 |
| B5 | 0.6923 |
| B6 | 0.6 |
